Reference: patent US12540197B2, “Anti-tissue factor antibodies and antibody conjugates, compositions comprising anti-tissue factor antibodies or antibody conjugates, and methods of making and using anti-tissue factor antibodies and antibody conjugates” (SUTRO BIOPHARMA, INC., priority 2023, dated 2026)
Substitutions are numbered along the chain they refer to.

B1: 2842-B01 HC3/LC1 (antibody)
heavy: MEVQLVESGGGLVQPGGSLRLSCAASGFSISSYDMSWVRQAPGKGLEWIGIIGSNGRTYYPDSVKGRFTISRDNSKNTVTLQMNSLRAEDTAVYYCARGLYDGTGNIWGQGTLVTVSSASTKGPSVFPLAPSSKSTSGGTAALGCLVKDYFPEPVTVSWNSGALTSGVHTFPAVLQSSGLSLSSVVTVPSSSLGTQTYICNVNHKPSNTKVDKKVEPKSCDKTHTCPPCPAPELLGGPSVFLFPPKPKDTLMISRTPEVTCVVVDVSHEDPEVKFNWYVDGVEVHNAKTKPREEQYNSTYRVVSVLTVLHQDWLNGKEYKCKVSNKALPAPIEKTISKAKGQPREPQVYTLPPSREEMTKNQVSLTCLVKGFYPSDIAVEWESNGQPENNYKTTPPVLDSDGSFLYSKLTVDKSRWQQGNVFSCSVMHEALHNHYTQKSLSLSPGK
light: MDLQMTQSPSSLSASVGDRVTITCRASQSVYGNNWLSWYQQKPGKAPKLLIYGASKLASGVPSRFSGSGSGTQFTLTISSLQPEDFATYYCQGTYYSGDWYFAFGQGTKVEIKRTVAAPSVFIFPPSDEQLKSGTASVVCLLNNFYPREAKVQWKVDNALQSGNSQESVTEQDSKDSTYSLSSTLTLSKADYEKHKVYACEVTHQGLSSPVTKSFNRGEC
modifications: conjugated to LP1 at Y180/F404
B2: 2842-G04 HC2/LC2 (antibody)
heavy: MQVQVQESGPGLVKPPGTLSLTCAVSGFSLSYYGVSWVRQPPGKGLEWIGTIDSSGRTYYNPSLKSRVTISNDNAPNTVSLKLSSVTAADTAVYYCARDFYGWNSGALDIWGQGTLVTVSSASTKGPSVFPLAPSSKSTSGGTAALGCLVKDYFPEPVTVSWNSGALTSGVHTFPAVLQSSGLSLSSVVTVPSSSLGTQTYICNVNHKPSNTKVDKKVEPKSCDKTHTCPPCPAPELLGGPSVFLFPPKPKDTLMISRTPEVTCVVVDVSHEDPEVKFNWYVDGVEVHNAKTKPREEQYNSTYRVVSVLTVLHQDWLNGKEYKCKVSNKALPAPIEKTISKAKGQPREPQVYTLPPSREEMTKNQVSLTCLVKGFYPSDIAVEWESNGQPENNYKTTPPVLDSDGSFLYSKLTVDKSRWQQGNVFSCSVMHEALHNHYTQKSLSLSPGK
light: MDLQLTQSPSTLSASVGDRVTITCRASQSVYSNKYLSWYQQKPGKAPKLLIYKASTLASGVPSRFSGSGSGTEFTLTISSLQPDDFATYYCAAAYSDDSDTAFGQGTKVEIKRTVAAPSVFIFPPSDEQLKSGTASVVCLLNNFYPREAKVQWKVDNALQSGNSQESVTEQDSKDSTYSLSSTLTLSKADYEKHKVYACEVTHQGLSSPVTKSFNRGEC
modifications: conjugated to LP1 at Y180/F404
B3: 2842-B01 HC1/LC1 (antibody, V domains shown)
VH: MQVQVVESGGGLVKPGGSLRLSCAASGFSISSYDMSWIRQAPGKGLEWIGIIGSNGRTYYADSVKGRFTISRNTNENTVYLQMNSLRAEDTAVYYCARGLYDGTGNIWGQGTLVTVSS
VL: MDLQMTQSPSSLSASVGDRVTITCRASQSVYGNNWLSWYQQKPGKAPKLLIYGASKLASGVPSRFSGSGSGTQFTLTISSLQPEDFATYYCQGTYYSGDWYFAFGQGTKVEIK
B4: SRP2901-E03 (antibody, V domains shown)
VH: B3 VH with Q2E, V5L, K14Q, I38V, A61P, N73D, T74N, N75S, E76K, Y80T
VL: MELVMTQSPPTLSLSPGERVTLSCRASQSVYGNNWLSWYQQKPGQAPRLLIYGASKLATSIPARFSGSGSGTQFTLTISSLQPEDFAVYYCQGTYYSGDWYFAFGQGTKVEIK
B5: SRP2901-F01 (antibody, V domains shown)
VH: B3 VH
VL: B3 VL with L3I, R25Q, Q73D, Q106G
B6: SRP2901-B05 (antibody, V domains shown)
VH: MQVQVQESGPGLVKPPGTLSLTCAVSGFSLSYYGVSWVRQPPGKGLEWIGTIDSSGRTYYNPSLKSRVTISNDNAPNTVSLKLSSVTAADTAVYYCARDFYGWNSGALDIWGQGTLVTVSS
VL: MDLQLTQSPSTLSASVGDRVTITCRASQSVYSNKYLSWYQQKPGKAPKLLIYKASTLASGVPSRFSGSGSGTEFTLTISSLQPDDFATYYCAAAYSDDSDTAFGQGTKVEIK
B7: SRP2901-D03 (antibody, V domains shown)
VH: B3 VH with Q2E, V5L, K14Q, I38V, A61P, N73D, T74N, N75S, E76K, Y80T
VL: B3 VL

Target: T1, human TF (Homo sapiens, UniProt P13726)
T1 construct: purchased Lake Pharma
Experiment: Biacore off-rate and kinetic binding, human TF
Details: Table 11, humanized rabbit antibodies; 100 nM antigen, 25° C.
Procedure: (§1) Anti-Fc polyclonal antibodies were immobilized onto a CM4 chip (Cytiva #BR100534) using amine coupling chemistry (Human Antibody Capture Kit, Cytiva #BR100839). The immobilization steps were carried out at a flow rate of 25 μL/min in 1×HBS-EP+buffer (Cytiva #BR100669). The sensor surfaces were activated for 7 min with a mixture of N-hydroxysuccinimide (NHS, 0.05 M) and 1-ethyl-3-(3-dimethylaminopropyl)-carbodiimide (EDC, 0.2 M). The anti-Fc polyclonal antibodies were injected over all 4 flow cells at a concentration of 25 μg/mL in 10 mM sodium acetate, pH 4.5, for 7 min. Ethanolamine (1 M, pH 8.5) was injected for 7 min to block any remaining activated groups. Approximately 6,000 response units (RU) of capture antibody was immobilized on each flow cell.
(§2) Off-rate and kinetic binding experiments were performed at 25° C. using 1×HBS-EP+buffer. Antibodies were injected over the anti-Fc surface at a concentration of 3 μg/mL for 12 seconds at a flow rate of 10 μL/min on flow cells 2, 3 and 4, followed by a buffer wash for 30 seconds at the same flow rate. Single point off-rate analysis was carried out using an antigen concentration of 100 nM. […] After capturing ligand (antibody) on the anti-Fc surface, the analyte (human TF, Lake Pharma; cynomolgus TF, Sino Bio #90885-C08H; mouse TF, R&D Systems #3178-PA) was bound for 180 seconds, followed by a 420 second dissociation phase at a flow rate of 50 μL/min. Between each ligand capture and analyte binding cycle, regeneration was carried out using 2 injections of 10 mM glycine pH 2.0 for 30 seconds at 30 μL/min, followed by a 30 second buffer wash step.
(§3) The data were fit with the Biacore T200 Evaluation software, using a 1:1 Langmuir binding model. KD (affinity, nM) was determined as a ratio of the kinetic rate constants calculated from the fits of the association and dissociation phases.
(§4) Anti-Fc polyclonal antibodies were immobilized onto a CM4 chip (Cytiva #BR100534) using amine coupling chemistry (Human Antibody Capture Kit, Cytiva #BR100839). The immobilization steps were carried out at a flow rate of 25 μL/min in 1×HBS-EP+buffer (Cytiva #BR100669). The sensor surfaces were activated for 7 min with a mixture of NHS (0.05 M) and EDC (0.2 M). The Anti-Fc antibodies were injected over all 4 flow cells at a concentration of 25 ug/ml in 10 mM sodium acetate, pH 4.5, for 7 min. Ethanolamine (1 M, pH 8.5) was injected for 7 min to block any remaining activated groups. Approximately 6,000 response units (RU) of capture antibody was immobilized on each flow cell. Off-rate and kinetic binding experiments were performed at 25° C. using 1×HBS-EP+buffer. Antibodies or ADCs were injected over the anti-Fc surface at a concentration of 3 μg/mL for 12 seconds at a flow rate of 10 μL/min on flow cells 2, 3 and 4, followed by a buffer wash for 30 seconds at the same flow rate. […] After capturing ligand (antibody) on the anti-Fc surface, the analyte (human TF, Lake Pharma; cynomolgus TF, Sino Bio #90885-C08H; mouse TF, R&D Systems #3178-PA) was bound for 180 seconds, followed by a 420 second dissociation phase at a flow rate of 50 μL/min. Between each ligand capture and analyte binding cycle, regeneration was carried out using 2 injections of 10 mM Glycine pH 2.0 for 30 seconds at 30 μL/min, followed by a 30 second buffer wash step. The data was fit with the Biacore T200 Evaluation software, using a 1-1 Langmuir binding model. KD (affinity, nM) was determined as a ratio of the kinetic rate constants calculated from the fits of the association and dissociation phases.

T1 sequence (P13726 33-295): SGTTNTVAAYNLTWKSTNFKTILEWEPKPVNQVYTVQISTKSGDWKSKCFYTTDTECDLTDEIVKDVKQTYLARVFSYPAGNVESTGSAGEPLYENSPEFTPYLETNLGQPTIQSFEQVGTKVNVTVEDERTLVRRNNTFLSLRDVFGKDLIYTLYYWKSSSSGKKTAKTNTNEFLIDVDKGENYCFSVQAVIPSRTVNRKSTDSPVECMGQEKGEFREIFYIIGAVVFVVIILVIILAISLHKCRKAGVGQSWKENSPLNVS

Point of comparison: B3, “Biacore human TF single point off-rate kinetics kd” value 0.000727 s⁻¹. Against it:
- B1 — 1.7-fold lower, 0.000416 s⁻¹
- B2 — within 1.5-fold, 0.000736 s⁻¹

Tested on: BxPC3 cells
Experiment: Secondary ADC cell killing assay (antibody + anti-human Fc nanobody conjugated to SC236) on BxPC3
Assay type: cell-based
Details: Table 17; nanobody-SC236 20 nM, 120 hrs
Procedure: The internalization ability of the lead antibodies was evaluated by an ADC cell killing assay on Tissue Factor positive BxPC3 cells. A total of 625 cells in a volume of 25 μL were seeded in each well of a 384-well flat bottom white polystyrene plate. Lead antibodies were formulated at 4-fold starting concentration in the cell culture medium and filtered through MultiScreenHTS 96-Well Filter Plates (Millipore; Billerica, Massachusetts). 12.5 μL of antibody was added into each treatment well, and 12.5 μL of anti-human Fc nanobody conjugated to SC236 was then added into each well at a fixed final concentration of 20 nM. Assay plates were cultured at 37° C. in a CO2 incubator for 120 hrs before assay. For cell viability measurement, 30 μL of Cell Titer-Glo® reagent (Promega Corp. Madison, WI) was added into each well, and plates were processed as per product instructions. Relative luminescence was measured on an ENVISION® plate reader (Perkin-Elmer; Waltham, MA). Relative luminescence readings were converted to percent viability using untreated cells as controls. Data was fitted with non-linear regression analysis, using a log (inhibitor) vs. response-variable slope, 4 parameter fit with GraphPad Prism (GraphPad v 5.0, Software; San Diego, California).

Point of comparison: B7, “BxPC3 Cell Killing Span (%)” value 77.4%. Against it:
- B4 — higher, 92.4%
- B5 — higher, 87%
- B6 — higher, 84%

Point of comparison: B6, EC50 0.059 nM. Against it:
- B4 — 2.8-fold higher, 0.166 nM
- B5 — 6.2-fold higher, 0.364 nM
- B7 — 3.1-fold higher, 0.184 nM

Tested on: not listed separately
Experiment: DSF protein thermal shift assay (melting temperatures TM1/TM2)
Assay type: physicochemical
Details: Table 8, humanized rabbit antibodies; TM2 = Fab domain
Procedure: (§5) A protein thermal shift assay was carried out by mixing the protein to be assayed with an environmentally sensitive dye (SYPRO Orange, Life Technologies #S-6650) and monitoring the fluorescence of the mixture in real time as it underwent controlled thermal denaturation. Protein solutions between 0.2-2 mg/mL were mixed at a 1:1 volumetric ratio with a solution of SYPRO Orange solution diluted 250-fold in PBS+10% sucrose. 10 μL aliquots of the protein-dye mixture were dispensed in quadruplicate in a 384-well microplate (Bio-Rad #MSP-3852). The plate was sealed with an optically clear sealing film (Bio-Rad #MSB-1001) and placed in a 384-well plate real-time thermocycler (Bio-Rad CFX384 Real Time System). The protein-dye mixture was heated from 25° C. to 95° C., at increments of 0.2° C. per cycle, allowing 3 seconds of equilibration at each temperature before taking a fluorescence measurement. At the end of the experiment, the transition melting temperatures (TM1 and TM2) were determined using the Bio-Rad CFX manager software. TM1 represents the melting temperature of the Fc domain. TM2 represents the melting temperature of the Fab domain.
as §5, with “solutions at 1” for “solutions between 0.2-2”, “a 1-1” for “a 1:1”, “sucrose. 5” for “sucrose. 10”

Point of comparison: B2, “DSF TM2 (° C.)” value 80.2 °C. Against it:
- B1 — higher, 86.5 °C
- B3 — higher, 87.3 °C

Tested on: cynomolgus TF
Experiment: Biacore off-rate and kinetic binding, cynomolgus TF
Details: Table 11, humanized rabbit antibodies; 100 nM antigen, 25° C.
Procedure: as §1, §2, §3, §4

cynomolgus TF, sequence (as listed by the source): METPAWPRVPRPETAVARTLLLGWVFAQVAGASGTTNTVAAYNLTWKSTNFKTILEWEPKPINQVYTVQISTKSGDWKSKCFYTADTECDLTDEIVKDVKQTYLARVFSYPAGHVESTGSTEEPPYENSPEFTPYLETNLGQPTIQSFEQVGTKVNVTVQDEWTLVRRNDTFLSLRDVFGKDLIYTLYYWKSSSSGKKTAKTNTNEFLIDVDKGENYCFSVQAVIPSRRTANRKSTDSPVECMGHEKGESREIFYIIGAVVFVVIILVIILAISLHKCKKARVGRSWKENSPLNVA

Point of comparison: B1, “Biacore cynomolgus TF single point off-rate kinetics kd” value 0.00187 s⁻¹. Against it:
- B2 — within 1.5-fold, 0.0017 s⁻¹
- B3 — 1.9-fold higher, 0.00352 s⁻¹
